Numbering of substitutions follows the chain as printed.
Tests used:
[1] = molecular target: VEGF (as used in the VEGFR competition ELISA); assay: competition ELISA, VEGF binding to hVEGFR1; ratio to reference Luc
[2] = molecular target: T1, recombinant human VEGF165 (PeproTech EC Ltd.) (human, UniProt P15692-4 27-191); assay: SPR, BIAcore T100, hVEGF165 amine-coupled on CM4 chip, scFv as analyte
T1 construct: Amine-coupled to a CM4 chip; also called hVEGF165
Method: The Biacore-binding ability of scFvs was tested and the binding affinity was measured using the exemplary surface plasmon resonance method with BIAcore™-T100. […] For the surface plasmon resonance experiment, carboxymethylated dextran biosensor chips (CM4, GE Healthcare) were activated with N-ethyl-N′-(3-dimethylaminopropyl) carbodiimide hydrochloride and N-hydroxysuccinimide according to the supplier's instructions. […] The 4th flow cell of each chip was treated similarly except no proteins were immobilized prior to blocking, and the flow cell was used as in-line reference. […] The apparent dissociation rate constant (kd), the apparent association rate constant (kₐ) and the apparent dissociation equilibrium constant (KD) were calculated using one-to-one Langmuir binding model with BIAcore T100 evaluation Software version 1.1.

VEGF (as used in the VEGFR competition ELISA), sequence (P15692 whole entry): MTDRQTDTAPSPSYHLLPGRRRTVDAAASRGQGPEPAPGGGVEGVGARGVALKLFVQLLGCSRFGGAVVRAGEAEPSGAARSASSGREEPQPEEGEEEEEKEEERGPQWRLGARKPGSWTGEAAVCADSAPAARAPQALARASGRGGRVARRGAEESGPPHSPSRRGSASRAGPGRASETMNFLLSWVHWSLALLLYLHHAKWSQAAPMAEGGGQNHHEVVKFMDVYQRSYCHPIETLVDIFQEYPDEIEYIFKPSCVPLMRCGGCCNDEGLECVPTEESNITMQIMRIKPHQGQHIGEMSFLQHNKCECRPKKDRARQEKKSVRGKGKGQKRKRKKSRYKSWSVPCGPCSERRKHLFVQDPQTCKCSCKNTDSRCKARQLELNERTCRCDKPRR
T1 sequence (P15692 other isoform, or with tags, fused parts or gaps limits assumed, form in doubt): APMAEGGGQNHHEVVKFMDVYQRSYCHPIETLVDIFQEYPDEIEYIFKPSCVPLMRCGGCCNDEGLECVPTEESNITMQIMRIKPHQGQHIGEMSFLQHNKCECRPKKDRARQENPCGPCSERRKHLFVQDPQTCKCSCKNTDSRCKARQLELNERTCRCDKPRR

B1: 567-min (scFv)
chain: EIVMTQSPSTLSASVGDRVIITCQADQSIYIWLSWYQQKPGKAPKLLIYKASTLESGVPSRFSGSGSGAEFTLTISSLQPDDFATYYCQNNAHYSTNGGTFGQGTKLTVLGGGGGSGGGGSGGGGSGGGGSEVQLVESGGGLVQPGGSLRLSCAASGFSLSDYYMCWVRQAPGKGLEWVSCLDYFGSTDDASWAKGRFTISRDNSKNTLYLQMNSLRAEDTAVYYCAKTDDSRGWGLNIWGQGTLVTVSS
- Rel. activity hVEGR1 comp. ELISA (EC50Luc [nM]/EC50test [nM]) [1]: 57 ratio

B2: 578-min (scFv)
scFv: EIVMTQSPSTLSASVGDRVIITCQASEIIHSWLAWYQQKPGKAPKLLIYLASTLASGVPSRFSGSGSGAEFTLTISSLQPDDFATYYCQNVYLASTNGANFGQGTKLTVLGGGGGSGGGGSGGGGSGGGGSEVQLVESGGGLVQPGGSLRLSCAASGFSLTDYYYMTWVRQAPGKGLEWVSFIDPDDDPYYATWAKGRFTISRDNSKNTLYLQMNSLRAEDTAVYYCAKGDHNSGWGLDIWGQGTLVTVSS
notes: NH2-VL-linker-VH-COOH; Min graft on FW1.4; also called 820
- Rel. activity hVEGR1 comp. ELISA (EC50Luc [nM]/EC50test [nM]) [1]: 4.8 ratio

B3: 534-min C-His (scFv, not shown: small tags and cut ends)
scFv: EIVMTQSPSTLSASVGDRVIITCQASQSINWLSWYQQKPGKAPKLLIYKESTLASGVPSRFSGSGSGAEFTLTISSLQPDDFATYYCQNNYDSGNNGFPFGQGTKLTVLGGGGGSGGGGSGGGGSGGGGSEVQLVESGGGLVQPGGSLRLSCAASGFSLSYYYMSWVRQAPGKGLEWVSIIGPGDYTDYASWAKGRFTISRDNSKNTLYLQMNSLRAEDTAVYYCAKGDDNSGWGEDIWGQGTLVTVSS
notes: Min graft with C-His in its name; also called 807
- Kd [2]: 34.1 nM
- koff [2]: 0.00921 s⁻¹
- kon [2]: 271000 M⁻¹ s⁻¹

B4: 511-min (scFv)
scFv: EIVMTQSPSTLSASVGDRVIITCQASQSINIWLSWYQQKPGKAPKLLIYRASTLASGVPSRFSGSGSGAEFTLTISSLQPDDFATYYCQANYAYSAGYGAAFGQGTKLTVLGGGGGSGGGGSGGGGSGGGGSEVQLVESGGGLVQPGGSLRLSCAASGFSLNTYYMNWVRQAPGKGLEWVSIIAPDDTTYYASWAKSRFTISRDNSKNTLYLQMNSLRAEDTAVYYCAKSGDTTAWGADIWGQGTLVTVSS
notes: NH2-VL-linker-VH-COOH; Min graft on FW1.4; also called 801
- Rel. activity hVEGR1 comp. ELISA (EC50Luc [nM]/EC50test [nM]) [1]: 0.7 ratio
- Kd [2]: 2.53 nM
- koff [2]: 0.00128 s⁻¹
- kon [2]: 505000 M⁻¹ s⁻¹

B5: 509-maxII (scFv)
chain: EIVMTQSPSTLSASVGDRVIITCQASQNIRIWLSWYQQKPGKAPKLLIYKASTLESGVPSRFSGSGSGTEFTLTISSLQPDDFATYYCQNNAHYSTNGGTFGQGTKLTVLGGGGGSGGGGSGGGGSGGGGSEVQLVESGGGLVQPGGSLRLSCTASGFSLSSYYMSWVRQAPGKGLEWVGILDYVGDTDYASWAKGRFTISKDASKNTVYLQMNSLRAEDTAVYYCARTDDSRGWGLNIWGQGTLVTVSS
- Rel. activity hVEGR1 comp. ELISA (EC50Luc [nM]/EC50test [nM]) [1]: 0.09 ratio
- Kd [2]: 3.37 nM
- koff [2]: 0.00282 s⁻¹
- kon [2]: 838000 M⁻¹ s⁻¹

B6: 509-min (scFv)
scFv: B1 chain with D26S, S28N, Y30R, D162S, F185V, S187D, D190Y
notes: NH2-VL-linker-VH-COOH; Min graft on FW1.4; also called 854
- Rel. activity hVEGR1 comp. ELISA (EC50Luc [nM]/EC50test [nM]) [1]: 2.9 ratio

— patent US20180127493A1 (ESBATECH AN ALCON BIOMEDICAL RESEARCH UNIT, published 2018)
